doi:10.1101/2024.03.29.587371 (bioRxiv, 2024)
No end group written: not given here. SUMO = small ubiquitin-like modifier

What was measured:
SEC = target: the molecule itself; assay: SEC
dansylated CaM7 = dansylated CaM7 (Arabidopsis thaliana, UniProt P59220 1-149, dansyl (labelled with dansyl chloride; sites not stated)); assay: other fluorescence titration

Row | Kd (dansylated CaM7) [nM] | Binder | stoichiometry N (SEC)
1 | 190 | SUMO-AtFBA5 (Arabidopsis fructose bisphosphate aldolase 5 with N-terminal His-SUMO tag) (enzyme, Arabidopsis thaliana, UniProt O65581 1-358, looked up) MSAFVGKYADELIKTAKYIATPGKGILAADESTGTIGKRFASINVENIESNRQALRELLFTSPGTFPCLSGVILFEETLYQKTTDGKPFVELLMENGVIPGIKVDKGVVDLAGTNGETTTQGLDSLGARCQEYYKAGARFAKWRAVLKIGATEPSELSIQENAKGLARYAIICQENGLVPIVEPEVLTDGSHDIKKCAAVTETVLAAVYKALNDHHVLLEGTLLKPNMVTPGSDSPKVAPEVIAEYTVTALRRTVPPAVPGIVFLSGGQSEEEATLNLNAMNKLDVLKPWTLTFSFGRALQQSTLKAWAGKTENVAKAQATFLTRCKGNSDATLGKYTGGASGDSAASESLYEEGYKY | 4
2 | 290 ± 130 | {SUMO}-IKKCAAVTETVLAAVYKALN (domain or fragment, not fully specified) [SUMO-AtFBA5 CaMBD (residues 194-213)] | –
3 | – | SUMO-AtFBA4 (Arabidopsis fructose bisphosphate aldolase 4 with N-terminal His-SUMO tag) (enzyme, Arabidopsis thaliana, UniProt F4KGQ0 1-393, looked up) MSCFKSKFAGKSYFRRTFHSSIIQFHPQLSILIWHRRYSIIRTYELIANAAYIGTPGKGILAADESTGTIGKRFVSINVENVESNRRALRELLFTTPGALQYISGIILFEETLYQKTASGKLFVDVMKEAGVLPGIKVDKGTVELAGTNGETTTTGLDGLGDRCKKYYEAGARFAKWRAVLKIGNNEPSELAIHENAYGLARYAVICQENGLVPIVEPEILVDGSHDIEKCAYVTERVLAACYKALSDHHVILEGTLLKPNMVTPGSDSGSKVKPEVIAKHTVRALQRTVPAAVPAVVFLSGGQSEEEATVNLNAINQLKGKKPWSLTFSYGRALQQSTLKAWGGKEENVDKAQKAFLARAKANSEATLGGYKGDAQLGEGASESLHVKDYKY | 4
